Biological target: AhR;ARNT (mouse (C57BL/6);mouse (C57BL/6), UniProt P30561;P53762 1-848;1-791, |)
Experiment: EMSA

Sequence of AhR;ARNT (P30561 whole entry, chain 1 of 2): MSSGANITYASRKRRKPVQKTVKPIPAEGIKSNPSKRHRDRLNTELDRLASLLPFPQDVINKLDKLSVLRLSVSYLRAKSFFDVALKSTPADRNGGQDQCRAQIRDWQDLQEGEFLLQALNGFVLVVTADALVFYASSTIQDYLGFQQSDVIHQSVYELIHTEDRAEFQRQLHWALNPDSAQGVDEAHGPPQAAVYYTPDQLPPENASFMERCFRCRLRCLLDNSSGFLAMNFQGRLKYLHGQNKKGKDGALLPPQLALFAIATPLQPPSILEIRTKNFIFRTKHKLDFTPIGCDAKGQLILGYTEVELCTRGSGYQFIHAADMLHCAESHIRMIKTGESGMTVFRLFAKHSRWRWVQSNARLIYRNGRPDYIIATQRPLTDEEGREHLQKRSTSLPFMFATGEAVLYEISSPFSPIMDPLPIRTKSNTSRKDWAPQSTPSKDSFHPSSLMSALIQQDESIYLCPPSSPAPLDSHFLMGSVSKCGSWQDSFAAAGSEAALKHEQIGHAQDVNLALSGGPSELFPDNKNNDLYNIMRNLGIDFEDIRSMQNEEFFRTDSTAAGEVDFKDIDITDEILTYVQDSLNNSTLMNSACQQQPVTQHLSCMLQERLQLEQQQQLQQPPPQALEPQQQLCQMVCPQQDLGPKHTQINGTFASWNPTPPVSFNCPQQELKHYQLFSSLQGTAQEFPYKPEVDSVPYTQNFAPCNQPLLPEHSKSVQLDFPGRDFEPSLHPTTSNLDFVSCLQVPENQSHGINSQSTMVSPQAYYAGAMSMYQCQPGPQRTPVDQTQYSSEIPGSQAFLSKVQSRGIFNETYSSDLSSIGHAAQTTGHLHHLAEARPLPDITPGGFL
Sequence of AhR;ARNT (P53762 whole entry, chain 2 of 2): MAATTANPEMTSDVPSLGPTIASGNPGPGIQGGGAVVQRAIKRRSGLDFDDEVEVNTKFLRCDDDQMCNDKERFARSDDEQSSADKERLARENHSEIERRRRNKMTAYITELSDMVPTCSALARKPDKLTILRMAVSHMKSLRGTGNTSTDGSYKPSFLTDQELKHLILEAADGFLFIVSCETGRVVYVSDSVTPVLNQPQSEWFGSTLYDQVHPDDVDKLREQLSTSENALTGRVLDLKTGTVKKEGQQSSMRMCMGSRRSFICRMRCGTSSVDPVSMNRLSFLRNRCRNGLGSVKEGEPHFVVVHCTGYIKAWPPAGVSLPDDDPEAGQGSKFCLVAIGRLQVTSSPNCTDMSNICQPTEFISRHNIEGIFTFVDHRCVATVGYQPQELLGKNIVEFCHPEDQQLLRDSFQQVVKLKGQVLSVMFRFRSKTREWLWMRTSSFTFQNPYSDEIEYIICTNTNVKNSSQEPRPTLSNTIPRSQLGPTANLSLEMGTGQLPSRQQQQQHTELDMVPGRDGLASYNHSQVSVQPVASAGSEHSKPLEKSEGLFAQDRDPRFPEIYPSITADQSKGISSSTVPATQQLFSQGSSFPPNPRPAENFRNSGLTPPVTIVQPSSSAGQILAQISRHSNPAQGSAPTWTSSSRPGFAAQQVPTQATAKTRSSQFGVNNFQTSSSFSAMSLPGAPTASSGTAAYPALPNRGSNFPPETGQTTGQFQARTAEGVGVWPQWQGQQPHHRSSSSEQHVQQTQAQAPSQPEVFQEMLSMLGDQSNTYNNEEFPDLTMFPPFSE

B1: Bax DRE-like (dsDNA)
DNA 1: GATCCAGAAAGCCGGGCGTGGTGGCGCACGCCTTTAATCCCA
DNA 2: GATCTGGGATTAAAGGCGTGCGCCACCACGCCCGGCTTTCTG
binding result: no binding
